What was measured:
[1] = target: T1, human TnC with C-terminal Avi- and His-tags (human, UniProt P24821 984-1798, biotinylated at the C-terminal Avi-tag); experiment: SPR Biacore T200, biotinylated TnC on SA chip, bispecific as analyte, 1:1 fit, apparent KD (bivalent binding)
T1 construct: also called huTnC; biotinylated human TnC
T1 sequence: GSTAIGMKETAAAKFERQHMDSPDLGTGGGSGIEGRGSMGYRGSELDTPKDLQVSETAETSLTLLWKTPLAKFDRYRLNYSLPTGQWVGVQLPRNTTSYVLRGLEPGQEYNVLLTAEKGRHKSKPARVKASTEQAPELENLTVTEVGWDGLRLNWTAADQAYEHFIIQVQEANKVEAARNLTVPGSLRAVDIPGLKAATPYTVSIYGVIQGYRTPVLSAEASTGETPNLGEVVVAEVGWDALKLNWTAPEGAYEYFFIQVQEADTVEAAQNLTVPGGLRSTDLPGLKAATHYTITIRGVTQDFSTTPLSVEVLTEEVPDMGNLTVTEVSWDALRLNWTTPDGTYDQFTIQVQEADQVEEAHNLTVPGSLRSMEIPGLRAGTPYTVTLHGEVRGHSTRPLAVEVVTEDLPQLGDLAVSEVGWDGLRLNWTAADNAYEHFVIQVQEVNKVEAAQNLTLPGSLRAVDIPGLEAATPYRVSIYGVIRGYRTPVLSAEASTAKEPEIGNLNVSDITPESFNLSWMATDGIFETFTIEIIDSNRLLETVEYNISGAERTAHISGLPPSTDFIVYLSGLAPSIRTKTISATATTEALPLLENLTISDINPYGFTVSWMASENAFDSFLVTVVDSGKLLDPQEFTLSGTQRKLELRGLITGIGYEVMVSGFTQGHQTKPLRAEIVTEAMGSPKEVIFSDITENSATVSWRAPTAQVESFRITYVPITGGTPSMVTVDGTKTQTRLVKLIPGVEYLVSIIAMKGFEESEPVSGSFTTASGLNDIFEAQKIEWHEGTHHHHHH
Description: The capacity of the bispecific constructs to bind human, murine and cynomolgus TnC was analysed by surface plasmon resonance (SPR). All SPR experiments were performed on a Biacore T200 at 25° C. with HBS-EP as running buffer (0.01 M HEPES pH 7.4, 0.15 M NaCl, 3 mM EDTA, 0.005% Surfactant P20, Biacore, Freiburg/Germany).
Biotinylated human, murine or cynomolgus TnC molecules were immobilised on a SA chip to reach an immobilization level of 10 resonance units (RU).
Following immobilisation, the bispecific molecules or control molecules were immediately passed over the chip surface at concentrations ranging from 0.05-50 nM, at a flow rate of 30 μL/minute for 120 seconds and a dissociation phase of 180 seconds. The surface was regenerated using 10 mM glycine pH2.1. Bulk refractive index differences were corrected for by subtracting the response obtained in a reference flow cell, where no TnC was immobilized. Affinity/Avidity was determined under these experimental conditions using the Langmuir 1:1 curve fitting. For bivalent binding the same 1:1 fitting was used leading to an apparent KD value.

[2] = target: T2, human OX40 Fc(kih), monomeric Fc-linked human OX40 antigen ECD (human, UniProt P0DOX5 223-449 = IgG part); experiment: SPR (Biacore T200, 25 °C): bispecific held on immobilised human TnC; human OX40 Fc(kih) at 250 nM injected for 90 s as analyte 2
T2 construct: Heterodimer of one OX40 ECD (aa 29-214)-AcTEV-Fc knob-Avi chain and one Fc hole chain; Biotinylated at the Avi tag for phage selection and ELISA; also called recombinant OX40 Fc (kih) receptor; biotinylated human OX40
Description: All SPR experiments were performed on a Biacore T200 at 25° C. with HBS-EP as running buffer (0.01 M HEPES pH 7.4, 0.15 M NaCl, 3 mM EDTA, 0.005% Surfactant P20, Biacore, Freiburg/Germany).
Biotinylated human TnC was directly coupled to a flow cell of a streptavidin (SA) sensor chip. Immobilization levels up to 1000 resonance units (RU) were used.
Bulk refractive index differences were corrected for by subtracting the response obtained in a reference flow cell, where no protein was immobilized.

human OX40 on cells = target: T3, human OX40 on cells (human, UniProt P43489 29-277); experiment: flow cytometry on OX40+ cells (activated human PBMC)
T3 construct: also called CD134; OX40+ Cells
T3 sequence: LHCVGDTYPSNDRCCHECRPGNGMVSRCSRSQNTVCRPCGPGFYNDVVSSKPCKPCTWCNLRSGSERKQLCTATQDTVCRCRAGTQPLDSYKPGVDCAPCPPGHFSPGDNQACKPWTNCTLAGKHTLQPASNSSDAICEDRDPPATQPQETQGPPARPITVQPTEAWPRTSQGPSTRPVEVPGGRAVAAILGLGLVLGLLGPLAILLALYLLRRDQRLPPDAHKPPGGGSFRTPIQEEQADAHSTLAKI
Description: For labeling, cells were harvested, washed with pre-warmed (37° C.) DPBS and adjusted to a cell density of 1×10⁷ cells/mL in DPBS. eFluor670 cell proliferation dye (eBioscience, Cat.-No. 65-0840-85) was added to the suspension of naïve human PBMC at a final concentration of […] and a final cell density of 0.5×10⁷ cells/mL in DPBS. Cells were then incubated for 10 min at room temperature in the dark. To stop the labeling reaction, 4 mL heat inactivated FBS was added and cells were washed three times with T cell medium. A 2:1 mixture of 1×10⁵ resting eFluor670 labeled human PBMC and 0.5×10⁵ unlabeled activated human PBMC were then added to each well of round-bottomed suspension cell 96-well plates (Greiner bio-one, cellstar, Cat. No. 650185).
Cells were stained for 120 minutes at 4° C. in the dark in 50 μL/well 4° C. FACS buffer containing different amounts of the indicated antigen binding molecules. After three washes with 4° C. FACS buffer, cells were stained for 45 minutes at 4° C. in the dark in 25 μL/well 4° C. FACS buffer containing a mixture of fluorescently labeled anti-human CD4 (clone RPA-T4, mouse IgG1 k, BioLegend, Cat.-No. 300532), anti-human CD8 (clone RPa-T8, mouse IgGlk, BioLegend, Cat.-No. 3010441) and Fluorescein isothiocyanate (FITC)-conjugated AffiniPure anti-human IgG Fcγ-fragment-specific goat IgG F(ab′)₂ fragment (Jackson ImmunoResearch, Cat.-No. 109-096-098).
Cells were then resuspended in […] FACS-buffer containing 0.2 μg/mL DAPI (Santa Cruz Biotec, Cat. No. Sc-3598) and acquired the same day using 5-laser LSR-Fortessa (BD Bioscience with DIVA software).

GST TnC hu fn5 B-C fn6 B = target: T4, GST TnC hu fn5 B-C fn6 B (human, biotinylated at the C-terminal Avi-tag); experiment: SPR ProteOn XPR36, biotinylated antigen captured on NLC chip, purified Fab as analyte, 1:1 Langmuir
T4 chain: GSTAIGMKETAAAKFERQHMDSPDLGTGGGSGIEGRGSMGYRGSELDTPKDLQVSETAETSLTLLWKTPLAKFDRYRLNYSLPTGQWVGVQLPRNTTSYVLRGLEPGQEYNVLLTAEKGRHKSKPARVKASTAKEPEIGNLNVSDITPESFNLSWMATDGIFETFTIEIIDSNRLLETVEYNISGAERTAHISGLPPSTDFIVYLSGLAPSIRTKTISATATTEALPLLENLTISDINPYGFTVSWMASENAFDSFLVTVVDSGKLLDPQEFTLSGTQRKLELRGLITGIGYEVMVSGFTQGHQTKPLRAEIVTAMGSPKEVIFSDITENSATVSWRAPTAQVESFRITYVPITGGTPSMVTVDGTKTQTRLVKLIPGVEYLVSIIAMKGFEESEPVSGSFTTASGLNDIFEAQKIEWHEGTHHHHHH
Description: (§1) Immobilization of antigens (ligand): Recombinant antigens were diluted with PBST (10 mM phosphate, 150 mM sodium chloride pH 7.4, 0.005% Tween 20) to 10 μg/ml, then injected at 30 μl/minute in vertical orientation. Injection of analytes: For ‘one-shot kinetics’ measurements, injection direction was changed to horizontal orientation, two-fold dilution series of purified Fab were injected simultaneously along separate channels 1-5, with association times of 200 s, and dissociation times of 240 s, respectively. Buffer (PBST) was injected along the sixth channel to provide an “in-line” blank for referencing. Association rate constants (kₒₙ) and dissociation rate constants (koff) were calculated using a simple one-to-one Langmuir binding model in ProteOn Manager v3.1 software by simultaneously fitting the association and dissociation sensorgrams. The equilibrium dissociation constant (KD) was calculated as the ratio koff/kₒₙ.

[3] = target: T5, GST huTnC fn5 mu A124 BC hu fn6 B (human fn5 and fn6, murine A124 BC); experiment: as above
T5 chain: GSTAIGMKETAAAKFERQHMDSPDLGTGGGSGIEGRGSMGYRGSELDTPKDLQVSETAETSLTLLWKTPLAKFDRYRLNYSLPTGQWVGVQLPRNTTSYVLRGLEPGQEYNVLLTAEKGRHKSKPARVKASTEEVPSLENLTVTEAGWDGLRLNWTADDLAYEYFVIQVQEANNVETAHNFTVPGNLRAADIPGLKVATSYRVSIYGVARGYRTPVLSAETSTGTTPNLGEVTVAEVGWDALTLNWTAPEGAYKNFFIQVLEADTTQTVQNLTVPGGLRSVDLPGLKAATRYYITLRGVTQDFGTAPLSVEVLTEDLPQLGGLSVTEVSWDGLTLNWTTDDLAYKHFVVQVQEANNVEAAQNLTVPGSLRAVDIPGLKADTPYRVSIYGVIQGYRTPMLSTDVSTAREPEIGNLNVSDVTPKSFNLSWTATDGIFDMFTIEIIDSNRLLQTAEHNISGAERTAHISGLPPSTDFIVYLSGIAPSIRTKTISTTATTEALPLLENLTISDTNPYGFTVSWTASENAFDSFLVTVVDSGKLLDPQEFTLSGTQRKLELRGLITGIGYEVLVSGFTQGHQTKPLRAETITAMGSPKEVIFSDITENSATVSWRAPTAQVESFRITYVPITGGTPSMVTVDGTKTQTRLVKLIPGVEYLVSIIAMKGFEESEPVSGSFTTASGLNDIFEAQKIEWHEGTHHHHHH
Description: as §1

[4] = target: T6, GST huTnC fn5 A1234 BC fn6 B (human, UniProt P24821 984-1798, biotinylated at the C-terminal Avi-tag); experiment: as above
T6 construct: also called Human GST-fused TnC fn5 A1234 BC fn6
T6 sequence: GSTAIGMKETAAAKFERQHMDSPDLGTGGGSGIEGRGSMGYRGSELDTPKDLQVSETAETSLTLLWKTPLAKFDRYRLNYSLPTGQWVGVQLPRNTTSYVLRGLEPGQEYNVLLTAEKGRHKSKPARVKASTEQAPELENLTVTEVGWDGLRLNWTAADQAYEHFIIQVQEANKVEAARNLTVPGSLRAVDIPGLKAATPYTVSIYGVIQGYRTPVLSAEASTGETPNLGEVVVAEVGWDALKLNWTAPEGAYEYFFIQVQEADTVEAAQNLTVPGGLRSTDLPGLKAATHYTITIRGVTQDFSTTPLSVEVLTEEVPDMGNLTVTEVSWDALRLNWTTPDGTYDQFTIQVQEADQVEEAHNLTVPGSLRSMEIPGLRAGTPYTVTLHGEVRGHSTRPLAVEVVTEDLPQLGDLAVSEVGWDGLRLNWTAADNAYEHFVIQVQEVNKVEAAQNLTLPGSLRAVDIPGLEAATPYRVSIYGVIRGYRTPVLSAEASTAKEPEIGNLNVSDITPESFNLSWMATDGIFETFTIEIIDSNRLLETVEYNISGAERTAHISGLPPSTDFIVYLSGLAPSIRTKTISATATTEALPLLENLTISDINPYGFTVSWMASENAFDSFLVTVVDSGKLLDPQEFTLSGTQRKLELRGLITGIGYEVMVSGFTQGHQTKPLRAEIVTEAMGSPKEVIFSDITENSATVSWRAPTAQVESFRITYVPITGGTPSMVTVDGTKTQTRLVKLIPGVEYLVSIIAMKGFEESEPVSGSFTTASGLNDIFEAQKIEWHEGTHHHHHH
Description: as §1

| Binder | Kd [1] [nM] | binding result [2] | EC50 (human OX40 on cells) [nM] | Kd (GST TnC hu fn5 B-C fn6 B) [nM] | Kd [3] [nM] | Kd [4] [nM] |
| --- | --- | --- | --- | --- | --- | --- |
| 49B4/TnC 11C7 P329GLALA 2 + 2 (ID7215) (bispecific antibody, human IgG1, kappa, L234A L235A, huIgG1 P329G LALA; 49B4 VHCH1-Fc-(G4S)4-11C7 VHCL heavy chain, 49B4 VLCL light chain, 11C7 VLCH1 crossed light chain; also called 2 + 2 (49B4/11C7); 49B4/11C7 2 + 2) heavy: not shown light 1: DIQMTQSPSTLSASVGDRVTITCRASQSISSWLAWYQQKPGKAPKLLIYDASSLESGVPSRFSGSGSGTEFTLTISSLQPDDFATYYCQQYSSQPYTFGQGTKVEIKRTVAAPSVFIFPPSDEQLKSGTASVVCLLNNFYPREAKVQWKVDNALQSGNSQESVTEQDSKDSTYSLSSTLTLSKADYEKHKVYACEVTHQGLSSPVTKSFNRGEC light 2: SSELTQDPAVSVALGQTVRVTCQGDSLRSYYASWYQQKPGQAPVLVIYGKNNRPSGIPDRFSGSSSGNTASLTITGAQAEDEADYYCNSINSTRNEVFGGGTKLTVLSSASTKGPSVFPLAPSSKSTSGGTAALGCLVKDYFPEPVTVSWNSGALTSGVHTFPAVLQSSGLYSLSSVVTVPSSSLGTQTYICNVNHKPSNTKVDKKVEPKSCD | 5.85 | binds | 4.22 |  |  |  |
| anti-TnC clone 11C7, purified Fab (Fab, V domains shown) VH: not shown VL: SSELTQDPAVSVALGQTVRVTCQGDSLRSYYASWYQQKPGQAPVLVIYGKNNRPSGIPDRFSGSSSGNTASLTITGAQAEDEADYYCNSINSTRNEVFGGGTKLTVL |  |  |  | 1 | 1.9 | 2.3 |

Source: US20200277392A1 (Hoffmann-La Roche, published 2020)
